From article PMC2193908 (The Journal of Experimental Medicine, 2003) come the findings set out here.

What all share (assay): radioligand binding
The target in assay [1] is CXCR3-B (alternatively spliced variant of CXCR3) (human) (UniProt P49682).
Assay [2] deals with CXCR3-A (classic CXC chemokine receptor 3) (human) (UniProt P49682).
For assay [3], the target named is CXCR3-B on the renal carcinoma ACHN cell line (human (endogenous in ACHN)) (UniProt P49682).
Assay [4] concerns the target CXCR3-B (alternatively spliced variant of CXCR3) (human) (UniProt P49682). This is another data set of the same source.
The target of assay [5] is T1, CXCR3-B on the renal carcinoma ACHN cell line (human (endogenous in ACHN), UniProt P49682-2 1-415).
T1 sequence (looked up): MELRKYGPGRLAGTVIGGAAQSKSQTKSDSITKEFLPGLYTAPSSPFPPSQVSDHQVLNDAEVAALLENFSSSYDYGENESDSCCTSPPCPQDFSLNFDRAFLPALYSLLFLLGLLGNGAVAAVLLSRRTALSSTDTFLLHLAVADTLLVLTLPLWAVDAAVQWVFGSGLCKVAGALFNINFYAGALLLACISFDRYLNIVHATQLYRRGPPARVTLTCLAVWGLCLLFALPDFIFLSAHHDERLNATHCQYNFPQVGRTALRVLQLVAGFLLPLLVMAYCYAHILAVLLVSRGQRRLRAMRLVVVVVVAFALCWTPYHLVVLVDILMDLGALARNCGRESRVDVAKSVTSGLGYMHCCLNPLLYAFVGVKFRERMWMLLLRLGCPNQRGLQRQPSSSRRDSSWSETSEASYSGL

Assay [6] deals with T2, CXCR3-B (alternatively spliced variant of CXCR3) (human, UniProt P49682-2 1-415).
T2 sequence (looked up): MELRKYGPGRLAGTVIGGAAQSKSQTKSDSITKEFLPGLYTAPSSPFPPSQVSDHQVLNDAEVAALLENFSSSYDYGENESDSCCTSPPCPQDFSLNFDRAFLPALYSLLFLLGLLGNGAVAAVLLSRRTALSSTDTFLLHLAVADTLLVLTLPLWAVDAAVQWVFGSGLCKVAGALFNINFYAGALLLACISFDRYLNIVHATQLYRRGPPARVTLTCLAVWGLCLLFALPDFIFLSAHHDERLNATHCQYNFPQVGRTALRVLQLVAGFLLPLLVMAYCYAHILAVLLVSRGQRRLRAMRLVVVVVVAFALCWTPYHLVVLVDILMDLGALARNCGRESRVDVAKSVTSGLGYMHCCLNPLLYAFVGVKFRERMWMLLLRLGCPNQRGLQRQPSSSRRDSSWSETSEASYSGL

The target of assay [7] is T3, CXCR3-A (classic CXC chemokine receptor 3) (human, UniProt P49682-1 1-368).
T3 sequence (looked up): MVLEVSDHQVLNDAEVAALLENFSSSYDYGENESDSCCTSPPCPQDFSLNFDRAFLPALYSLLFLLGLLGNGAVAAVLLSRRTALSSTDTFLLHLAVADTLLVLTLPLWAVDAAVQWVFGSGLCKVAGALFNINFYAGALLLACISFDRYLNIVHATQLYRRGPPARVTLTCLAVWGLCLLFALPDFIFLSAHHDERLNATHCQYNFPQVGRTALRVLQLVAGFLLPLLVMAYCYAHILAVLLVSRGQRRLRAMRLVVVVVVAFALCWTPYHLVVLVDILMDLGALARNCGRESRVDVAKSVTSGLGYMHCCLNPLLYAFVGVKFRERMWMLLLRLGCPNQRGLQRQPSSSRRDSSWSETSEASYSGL

Where two headings read alike, the source gives them in different places.

As for CXCL4/PF4 (platelet factor 4) (ligand), the IC50 (as a rule, the concentration needed to halve the response being measured) in assay [1] came to 7.46 nM; in assay [2], 448 nM; in assay [3] it was 6.83 nM; in assay [4], 1.85 nM.

B1: CXCL9/Mig (ligand, human, UniProt Q07325 23-125, looked up)
chain: TPVVRKGRCSCISTNQGTIHLQSLKDLKQFAPSPSCEKIEIIATLKNGVQTCLNPDSADVKELIKKWEKQVSQKKKQKNGKKHQKKKVLKVRKSQRSRQKKTT
B1: the IC50 in assay [5] was determined as 88.5 ± 69.3 nM; in assay [6], 133 ± 46.5 nM; in assay [7], 33 ± 24 nM.

B2: CXCL11/I-TAC (ligand, human, UniProt O14625 22-94, looked up)
chain: FPMFKRGRCLCIGPGVKAVKVADIEKASIMYPSNNCDKIEVIITLKENKGQRCLNPKSKQARLIIKKVERKNF
On to B2, for which the IC50 was determined as 49.6 ± 11.3 nM in assay [5], 32 ± 10.2 nM in assay [6] and 0.41 ± 0.14 nM in assay [7].
